Numbering of substitutions follows the chain as printed. Like-named read-outs stand apart in the source and are kept apart here. One block for each binder: values may come before it.
Columns and labels:
[1] = target: T1, full-length human Sp35 with an N-terminal HA tag (lysate of transfected COS-1 cells) (human, UniProt Q96FE5 40-620); assay: IP
T1 construct: used here for all IP columns headed huSp35 / hLINGO-1; also called huSp35 (IP); hLINGO-1 (IP)
T1 sequence: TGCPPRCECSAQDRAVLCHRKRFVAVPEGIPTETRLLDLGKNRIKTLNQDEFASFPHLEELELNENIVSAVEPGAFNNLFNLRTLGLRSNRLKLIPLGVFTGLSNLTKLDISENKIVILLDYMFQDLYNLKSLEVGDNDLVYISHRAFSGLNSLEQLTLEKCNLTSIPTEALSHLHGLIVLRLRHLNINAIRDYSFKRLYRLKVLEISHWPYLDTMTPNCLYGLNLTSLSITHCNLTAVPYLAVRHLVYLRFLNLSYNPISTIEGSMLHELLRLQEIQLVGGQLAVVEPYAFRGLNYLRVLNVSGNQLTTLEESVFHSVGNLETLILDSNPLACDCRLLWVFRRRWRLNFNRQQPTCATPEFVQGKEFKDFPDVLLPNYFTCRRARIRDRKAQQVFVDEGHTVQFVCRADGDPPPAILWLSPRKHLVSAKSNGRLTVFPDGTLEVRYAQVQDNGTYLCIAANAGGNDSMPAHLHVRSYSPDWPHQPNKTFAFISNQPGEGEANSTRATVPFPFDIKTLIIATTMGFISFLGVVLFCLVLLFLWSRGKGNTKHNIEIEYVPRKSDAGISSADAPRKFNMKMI

[2] = target: T2, human Sp35 protein (ELISA, Western, KD; form not stated) (human, UniProt Q96FE5 40-538, limits assumed); assay: ELISA
T2 construct: also called huSp35; hLINGO-1
T2 sequence: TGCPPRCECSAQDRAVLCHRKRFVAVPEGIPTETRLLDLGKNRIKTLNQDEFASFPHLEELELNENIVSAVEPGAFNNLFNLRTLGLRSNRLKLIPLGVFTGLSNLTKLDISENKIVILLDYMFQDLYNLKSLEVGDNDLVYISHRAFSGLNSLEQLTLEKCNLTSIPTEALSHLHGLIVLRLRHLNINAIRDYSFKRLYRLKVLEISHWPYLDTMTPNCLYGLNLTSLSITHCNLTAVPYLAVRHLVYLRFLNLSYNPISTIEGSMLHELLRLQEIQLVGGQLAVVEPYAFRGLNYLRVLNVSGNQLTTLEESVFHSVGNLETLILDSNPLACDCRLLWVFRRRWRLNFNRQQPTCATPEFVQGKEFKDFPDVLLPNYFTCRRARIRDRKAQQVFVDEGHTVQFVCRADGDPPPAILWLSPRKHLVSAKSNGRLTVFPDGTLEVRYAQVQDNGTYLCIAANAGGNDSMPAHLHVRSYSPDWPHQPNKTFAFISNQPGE

[3] = target: T3, Sp35 fragment 34-532 (ELISA) (human, UniProt Q96FE5 40-538); assay: ELISA
T3 sequence: T2 sequence
Protocol: (§1) In order to determine which regions of the Sp35 polypeptide were bound by the various hybridoma- and phage display-derived monoclonal antibodies produced in Example 2, an ELISA assay was performed using a panel of truncated Sp35 polypeptides, each fused to the hinge and Fc regions of IgG1 by the methods described in Example 1. […] Ovalbumin and BSA were used as controls. […] The affinity of these latter antibodies for mouse and rat Sp35 was restored to the level seen using human Sp35 when amino acid 419 of the mouse or rat Sp35 is changed from histidine (H) to arginine (R). Arginine is the amino acid at position 419 in human Sp35. […] AP substrate was then developed by 10 mg/ml 4 NPP in 0.1 M Glycine, 1 mM MgCl₂, 1 mM ZnCl₂, pH 10.5, and read at O.D. 405.

[4] = target: T4, Sp35-Fc fusion protein (human Sp35 residues 1-532 fused to hinge and Fc of human IgG1) (human, UniProt Q96FE5 40-538); assay: ELISA
T4 construct: also called LINGO-1-Ig; LINGO-1-Fc; not shown: hinge and Fc region of human IgG1
T4 sequence: T2 sequence
Protocol: as §1

[5] = target: T1, full-length human Sp35 with an …; assay: IP; remark: listed apart in the source
Protocol: To perform the immunoprecipitation, COS-1 cells expressing Sp35, fused to a hemaglutinin (HA) tag on the N-terminus, were produced by transiently transfecting COS-1 cells with a DNA construct which expresses the full-length Sp35 protein with an HA tag. Cells were harvested 48 hr after transfection and were lysed in 1 ml lysis buffer (50 mM HEPES, pH 7.5, 150 mM NaCl, 1.5 mM MgCl₂, 1 mM EGTA, 1% Triton X-100 and 10% glycerol) for 30 min at 4° C. After centrifugation at 14,000×g for 15 min, the supernatants were incubated with ProteinA/G-Sepharose beads (Santa Cruz) at 4° C. for 1 hr, and then incubated at 4° C. for 1 hr with either the 1A7 or the 2F3 anti-Sp35 murine monoclonal antibodies. The beads were washed 3 times with lysis buffer, boiled in Laemmli sample buffer, subjected to 4-20% SDS-PAGE, and analyzed by Western blotting using an antibody which recognizes the HA tag. As shown on the SDS-PAGE gel, monoclonal antibodies 1A7 and 2F3, immunoprecipitated human and murine Sp35 (FIG. 1). […] Similarly, monoclonal antibodies 1G7, 2B10, 2F3, 3P4C2.2D2, 3P4C8.2G9, Li01, Li03, Li05, Li06, Li07, Li08, Li11, Li12, 7P1D5.1G9 and 3B5.2 immunoprecipitate human or mouse or human and mouse Sp35 (See Table 3B and 3C). Additionally, Li08 immunoprecipitates AP-Sp35 and monoclonal antibodies 1B6.4 and 3E3.1 immunoprecipitate endogenous Sp35 (See Table 3B).

[6] = target: T5, human Sp35 protein expressed on transfected cells (human, UniProt Q96FE5 40-620); assay: FACS
T5 construct: also called huSp35; hLINGO-1
T5 sequence: T1 sequence

binding result [1]: binds
binding result [2]: binds
B1: 80-D02 (Dli34) Fab (Fab, V domains shown)
VH: EVQLLESGGGLVQPGGSLRLSCAASGFTFSNYEMYWVRQAPGKGLEWVSGIYSSGGITVYADSVKGRFTISRDNSKNTLYLQMNSLRAEDTAVYYCARAAILDWYFDLWGRGTLVTVSS
VL: DIQMTQSPSSLSASVGDRVTITCHASQDISNYLSWYQQKPGKAPKLLIYDAFNLETGVPSRFSGSGSGTDFTFTISSLQPEDFATYYCQHYDNLPFTFGPGTRVAIR
notes: human

binding result [3]: binds
binding result [4]: binds
binding result [5]: binds
binding result [2]: binds
B2: 3P1D10.2C3 (antibody, mouse IgG1, V domains shown)
VH: QVQLQQSGAELARPGASVKLSCRASGYTFTSSWTQWVKQRPGQGLEWIGAIYPGDGDTRYTQKFKGKATLTADKSSSTAYMQLSSLASEDSAVYYCARHNSYGMDYWGQGTSVTVSS
VL: DIVMTQSPSSLTVTAGEKVTMSCKSSQSLLNSGNQKNYLTWYQQKPGQPPKLLIYWASTRESGVPDRFTGSGSGTDFTLTINSVQAEDLAVYYCQNDYSYPLFTFGSGTKLEIR
notes: murine IgG1

binding result [3]: binds
binding result [4]: binds
binding result [5]: binds
binding result [2]: binds
B3: 3P1E11.3B7 (antibody, mouse IgG1, V domains shown)
VH: B2 VH
VL: B2 VL with N37S
notes: murine IgG1

binding result [2]: binds
B4: 79-G02 (Dli32) Fab (Fab, V domains shown)
VH: EVQLLESGGGLVQPGGSLRLSCAASGFTFSAYMMQWVRQAPGKGLEWVSSISPSGGNTKYADSVKGRFTISRDNSKNTLYLQMNSLRAEDTAVYYCARGDYGYWFDPWGQGTLVTVSS
VL: DIQMTQSPDSLSASVGDRVTITCQASQDISYYLNWYQQKPGMAPKLLIYDAFILEGGAPSRFSGSGSGTDFSFTISNLQPEDIATYFCQQSDQLPVTFGQGTKVEIR
notes: human

binding result [5]: binds
binding result [2]: binds
B5: 35-E04 (Li03) Fab (Fab, V domains shown)
VH: EVQLLESGGGLVQPGGSLRLSCAASGFTFSQYPMEWVRQAPGKGLEWVSGIYPSGGSTVYADSVKGRFTISRDNSKNTLYLQMNSLRAEDTAVYYCARAGQWLGDFDYWGQGTLVTVSS
VL: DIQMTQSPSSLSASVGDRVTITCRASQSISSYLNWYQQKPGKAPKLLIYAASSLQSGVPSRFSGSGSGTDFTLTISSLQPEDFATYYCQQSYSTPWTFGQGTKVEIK
notes: human, kappa; also called Dli03

binding result [2]: binds
B6: 28-D02 (Li10) Fab (Fab, V domains shown)
VH: EVQLLESGGGLVQPGGSLRLSCAASGFTFSTYPMVWVRQAPGKGLEWVSWIGPSGGVTAYADSVKGRFTISRDNSKNTLYLQMNSLRAEDTAVYYCARPYSSGWWDFDLWGRGTLVTVSS
VL: DIQMTQSPSSMSASVGDTVTITCRASQGIGNWLAWYQQKPGKAPTLLIYAASSLESGVPSRFTGSGSSSGIDFTLTISDLHPEDLATYYCQQAQTFPLTFGGGTRVDLK
notes: human, kappa; also called Dli10

binding result [6]: binds
binding result [5]: binds
binding result [2]: binds
B7: 30-B01 (Li11) Fab (Fab, V domains shown)
VH: EVQLLESGGGLVQPGGSLRLSCAASGFTFSSYAMYWVRQAPGKGLEWVSSISTSGGYTGYADSVKGRFTISRDNSKNTLYLQMNSLRAEDTAVYYCARDTSDNDYYYMDVWGKGTTVTVSS
VL: DIQMTQSPSSVSAPIGDRVTITCRASQEIANYLAWYQQKPGKAPKLLIYDTYTLQTDVPPRFSGSGSGTDFTLTISSLQPEDTATYFCQQADIFPLSFGGGTKVEIK
notes: human, kappa; also called Dli11; Li011

— patent US20090252748A1 (Biogen, published 2009)
